Results on nine molecules are retold here after patent US9120851B2, “Human antibodies to human angiopoietin-like protein 4” (Regeneron Pharmaceuticals, Inc., priority 2009, dated 2015).

The experiment concerns C57BL/6 mice given hANGPTL4-mFc. The class given is in vivo. Conditions: antibody 5 mg/kg s.c.; 24 h later hANGPTL4-mFc 25 μg/mouse i.v.; bled 30 min after; mean±SEM. Here is the method: In another set of experiments, selected anti-hANGPTL4 antibodies were tested for their ability to inhibit hANGPTL4-induced increase of triglyceride levels. Measurements of total cholesterol, LDL, NEFA-C and HDL were also made. Briefly, C57BL/6 mice were put into groups of five mice each for each antibody tested. Antibodies were administered at 5 mg/kg dose by subcutaneous injection. Control group I, i.e., mice that received neither anti-hANGPTL4 antibodies nor hANGPTL4, were administered with PBS. Twenty-four hours post-injection of antibody, hANGPTL4-mFc (SEQ ID NO:480) was administered (i.v.) at a dose of 25 μg/mouse to each antibody group. Mice were bled at 30 min after hANGPTL4-mFc injection and lipid levels were determined by ADVIA® 1650 Chemistry System (Siemens). Averages were calculated for each of the measurements of triglycerides, total cholesterol (Total-C), LDL, NEFA-C and HDL for each antibody or control group. Levels of circulating anti-hANGPTL4 antibodies (Serum Ab) were also determined using a standard ELISA assay. Briefly, plates were coated with a goat anti-human Fc antibody (Sigma-Aldrich) to capture Serum Ab. Serum was then added to the plates and captured anti-hANGPTL4 antibodies were detected by chemiluminescence using a horseradish peroxidase (HRP) conjugated goat anti-human IgG antibody (Sigma-Aldrich). Control I: Mice that received PBS, but neither anti-hANGPTL4 antibodies nor hANGPTL4-mFc. Control II: Mice that received a human antibody specific for CD20 (i.e., the mAb having the sequence of 2F2 clone disclosed in US 2008/0260641) and hANGPTL4-mFc.

B1: H1H653P: anti-hANGPTL4 antibody, HCVR/LCVR SEQ ID NOs 306/308 (antibody, V domains shown)
VH: QVQLVESGGGVVQPGRSLRLSCVASGFTFSSYGMHWVRQAPGKGLEWMAVIWYDGSNKYFADSVKDRFTISRDNSKNTLYLQMNTLRPDDTAVYYCVKADAPLLIYGVDVWGQGTTVTVS
VL: DIQMTQSPSSLSASVGDRVTITCRASQGIRNDLGWYQEKPGKAPKRLIYFASSLQSGVPSRFSGSGSGTEFTLTISSLQPEDFATYYCLQHNSYPYTFGQGTKLEIK
As for B1, the HDL stood at 40.10 ± 2.72 mg/dL, the LDL is listed as 3.84 ± 0.32 mg/dL, the NEFA-C is recorded as 1.04 ± 0.1 mg/dL and the Total-C is 74.20 ± 4.49 mg/dL. In addition, the Triglycerides was 88.00 ± 13.52 mg/dL.

B2: H1H257P: anti-hANGPTL4 antibody, HCVR/LCVR SEQ ID NOs 18/20 (antibody, V domains shown)
VH: EVQLVESGGGLVQPGGSLRLSCAASGFTFSSYDMHWVRQVAGKGLEWVSAIGTAGDTYYPVSVKGRFTISRENAKNSLYLHMNSLRAGDTAVYFCARGDSRNYYVGDYFDYWGQGTLVTVSS
VL: DIQMTQSPSTLSASVGDRVTITCRASQSISRWLAWYQQKPGKAPKVLIYQASNLESGVPSRFSGSGSGTEFTLTISSLQPDDFATYYCQQYDSYSRAFGRGTKVEIK
In turn, B2 yielded an HDL of 41.38 ± 3.24 mg/dL, an LDL of 5.30 ± 0.36 mg/dL, an NEFA-C of 0.97 ± 0.03 mg/dL and a Total-C of 84.40 ± 3.53 mg/dL. For the same molecule, the Triglycerides stood at 115.80 ± 6.43 mg/dL.

B3: H1H292P: anti-hANGPTL4 antibody, HCVR/LCVR SEQ ID NOs 162/164 (antibody, V domains shown)
VH: EVQLVESGGGLVQPGGSLRLSCVASGFTFSSYDMHWVRQLPGKGLEWVSAIGVAGDTYYPASVKGRFTISRENAKNSLYLQMNSLRAGDTAVYYCARGDSGNYYDGDYFDFWGQGTLVTVSS
VL: DIQMTQSPSTLSASVGDRVTITCRASQSINRWLAWYQQKPGKAPKVLIYKASNLESGVPSRFSGSGSGTEFTLTISSLQPDDFATYYCQQYDSYFRTFGQGTKVEIK
Molecule B3 had an HDL of 39.44 ± 1.68 mg/dL, an LDL of 3.96 ± 0.15 mg/dL, an NEFA-C of 1.06 ± 0.06 mg/dL and a Total-C of 74.40 ± 2.11 mg/dL. The Triglycerides came to 85.80 ± 7.00 mg/dL.

B4: H1H291P: anti-hANGPTL4 antibody, HCVR/LCVR SEQ ID NOs 138/140 (antibody, V domains shown)
VH: EVQLVESGGGLVQPGGSLRLSCAASGFTFSTYDMHWVRQGLGKGLEWVSAIGSAGDTYYPGSVKGRFTISRDNAKSSLFLHMNSLRAGDTALYYCARGDSRNYFVGDYFDYWGQGTLVTVSS
VL: DIQMTQSPSTLSASIGDRVTITCRASQSISSWLAWYQQKPGKAPKVLIYKASSLEAGVPSRFSGSGSGTEFTLTISSLQPDDFASYYCQQYSSYSRTFGQGTKVEIK
For the molecule B4, the HDL worked out at 38.24 ± 2.14 mg/dL, the LDL is 3.84 ± 0.12 mg/dL, the NEFA-C amounted to 1.11 ± 0.04 mg/dL and the Total-C is listed as 71.20 ± 3.26 mg/dL. The Triglycerides came to 111.00 ± 7.51 mg/dL.

B5: H1H638P: anti-hANGPTL4 antibody, HCVR/LCVR SEQ ID NOs 258/260 (antibody, V domains shown)
VH: EVQLVESGGGLVQPGGSLRLSCVASGFTFSSYDMHWVRQVAGKGLEWVAAIGTAGDTYYPVSVKGRFTISRENAKNSLSLHMNSLRAGDTAVYYCARGDSRNYYVGDYFDYWGQGTLVTVSS
VL: DIQMTQSPSTLSASVGDRVTITCRASQSISRWLAWYQQKPGKAPKVLIYKASSLKSGVPSRFSGSGSGTEFTLTISSLQSDDFATYYCQQYNSYSRTFGQGTKVEIK
Regarding B5, the HDL turned out to be 39.54 ± 1.65 mg/dL, the LDL is given as 4.14 ± 0.18 mg/dL, the NEFA-C is given as 1.06 ± 0.05 mg/dL and the Total-C was determined as 73.80 ± 2.78 mg/dL. This molecule also had a Triglycerides of 102.80 ± 10.75 mg/dL.

B6: H1H285P: anti-hANGPTL4 antibody, HCVR/LCVR SEQ ID NOs 114/116 (antibody, V domains shown)
VH: EVQLVESGGGLVQPGGSLRLSCAASGFTFSRYDMHWVRQVTGKGLEWVSGIGTAGDTYYPGSVKGRFTISRENDKNSLYLQMNSLRVGDTAVYYCARGDSKNYYVGDYFDYWGQGTLVTVSS
VL: DIQMTQSPSTLSASVGDRVTFTCRASHSIGNWLAWYQQKPGKAPKVLIYEASSLEDGVPSRFSGSGSGTEFTLTISSLQPDDFATYYCQQYDTYFRTFGQGTKVEIK
Regarding B6, the HDL is 42.20 ± 0.91 mg/dL, the LDL is recorded as 3.72 ± 0.44 mg/dL, the NEFA-C stood at 0.97 ± 0.06 mg/dL and the Total-C was found to be 76.40 ± 1.75 mg/dL. Moreover, the Triglycerides is reported as 91.40 ± 11.99 mg/dL.

B7: H1H624P: anti-hANGPTL4 antibody, HCVR/LCVR SEQ ID NOs 210/212 (antibody, V domains shown)
VH: EVQLVESGGGLVQPGGSLRLSCAASEFIFSSYAMNWVRQAPGKGLEWVSVISGSGDSKYYADSVKGRFTISRDNSKNTLYLQMNSLRVEDTAVYYCAKDGKDRYGFYYNFYGMDVWGQGTTVTVS
VL: DIQMTQSPSFLSASVGDRVTITCWASQGISSYLAWYQQKPGKAPKILIYAASTLQSGVPSRFSASGSGTEFTLTISSLQPEDFATYHCQQLNSYPFTFGPGTKVDIK
B7 returned an HDL of 35.40 ± 2.68 mg/dL, an LDL of 4.36 ± 0.92 mg/dL, an NEFA-C of 0.86 ± 0.07 mg/dL and a Total-C of 72.80 ± 5.49 mg/dL. This molecule also gave a Triglycerides of 81.20 ± 9.26 mg/dL.

B8: H1H236N2: anti-hANGPTL4 antibody, HCVR/LCVR SEQ ID NOs 458/394 (antibody, V domains shown)
VH: EVQLVESGGGLVQPGRSLRLSCAASGFTFDDYAMHWVRQAPGKGLEWVSGISWNSGSIVYADSVKGRFTISRDNAKNSLYLQMNSLISEDTALYYCAKDESSSSGNWFDPWGQGTLVTVSS
VL: EVVMTQSPATLSVSPGERATLSCRASQSVSSNLAWYQQKPGQAPRLLIYGASTRATGIPARFSGSGSGTEFTLTISSLQSEDFAVYYCQEYNNWITFGQGTRLEIK
B8 gave an HDL of 33.78 ± 1.13 mg/dL, an LDL of 4.26 ± 0.25 mg/dL, an NEFA-C of 1.11 ± 0.18 mg/dL and a Total-C of 72.40 ± 1.81 mg/dL. The same molecule returned a Triglycerides of 151.80 ± 9.26 mg/dL.

B9: H1H295P: anti-hANGPTL4 antibody, HCVR/LCVR SEQ ID NOs 186/188 (antibody, V domains shown)
VH: EVQLVESGGGLVQPGGSLRLSCAASGFTFSTYDMHWVRQAPGKGLEWVSAIGSAGDTYYPGSVKGRFTISRDNAKSSLFLQMNSLRAGDTALYYCARGDSRNYFVGDYFDYWGQGTLVTVSS
VL: DIQMTQSPSTLSASVGDRVTITCRASQSIGTWLAWYQQKPGKAPKILIYKASSLEGGVPSRFSGSGSGTEFTLTISSLQPDDFANYYCQQYNSFYRTFGQGTKVEIK
B9 returned an HDL of 39.70 ± 3.13 mg/dL, an LDL of 4.04 ± 0.40 mg/dL, an NEFA-C of 1.12 ± 0.04 mg/dL and a Total-C of 74.60 ± 4.82 mg/dL. This molecule gave a Triglycerides of 104.80 ± 9.44 mg/dL.
